The target in this assay is T1, DNA ligase IV catalytic region (residues 1–609) (human, UniProt P49917 1-609).
T1 construct: Cloned in pOPINS; whether the His6-Sumo tag was removed is told only in the Supplemental Experimental Procedures; the derivative crystals carry nine mercury atoms from thiomersal; the methods point to the recombinant construct for the crystals; also called catalytic region of LigIV
T1 sequence (looked up): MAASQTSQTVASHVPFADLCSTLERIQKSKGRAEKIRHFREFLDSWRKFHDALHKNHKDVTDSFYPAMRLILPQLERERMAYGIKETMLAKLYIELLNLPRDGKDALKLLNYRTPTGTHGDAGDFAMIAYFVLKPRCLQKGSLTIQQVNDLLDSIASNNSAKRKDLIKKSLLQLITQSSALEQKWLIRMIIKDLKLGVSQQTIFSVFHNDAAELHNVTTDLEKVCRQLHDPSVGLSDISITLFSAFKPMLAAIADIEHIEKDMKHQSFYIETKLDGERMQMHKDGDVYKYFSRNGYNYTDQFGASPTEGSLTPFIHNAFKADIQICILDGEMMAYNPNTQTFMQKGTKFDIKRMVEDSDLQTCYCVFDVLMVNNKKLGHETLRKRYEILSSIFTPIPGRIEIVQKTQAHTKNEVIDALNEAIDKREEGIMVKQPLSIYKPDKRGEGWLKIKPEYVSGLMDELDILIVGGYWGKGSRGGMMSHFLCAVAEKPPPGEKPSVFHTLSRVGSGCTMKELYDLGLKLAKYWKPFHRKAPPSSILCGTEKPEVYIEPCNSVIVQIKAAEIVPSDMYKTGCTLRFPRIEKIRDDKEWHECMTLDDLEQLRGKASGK
The assay is described as follows: crystal structure; vapor diffusion, 100 mM MES (pH 5.6–5.7), 2.0 M (NH4)2SO4, 10 mM YCl3; native crystals and crystals soaked in 1 mM thiomersal. Conditions: both partners purified.

B1: Artemis peptide (residues 485–495) (peptide, UniProt Q96SD1 485-495, looked up)
peptide: DVPQWEVFFKR
notes: holds P487, W489, F492 and F493; also called Artemis fragment; source: synthetic peptide (PNAC facility, Department of Biochemistry, University of Cambridge)
With B1, the binding result is recorded as “binds”.

Source of the values: publication PMC3664939, “Structure of the Catalytic Region of DNA Ligase IV in Complex with an Artemis Fragment Sheds Light on Double-Strand Break Repair” (Structure(London, England:1993), 2013).
